This is an account of results in article PMC4382335.

A value given as a limit tells only on which side of the number the result lay.

The target of experiment [1] is papain from papaia latex (papaia (from papaia latex)) (UniProt P00784).
Experiment [2] shares this target. This is another data set of the same source.
The target is the same in experiment [3]. This is another data set of the same source.
The target in experiment [4] is TcCYS4-His-tag, recombinant cystatin TcCYS4 from Theobroma cacao (Theobroma cacao). Briefly: SEC; TcCYS4 at 20 uM in 100 mM phosphate buffer pH 6, 150 mM NaCl, treated at different temperatures for 10 min (all heat treatments), Superdex 75 5/150, LMW standards. A general note: SEC sorts molecules by how far they enter the pores of the column.
Experiment [5] has as its target papain from papaia latex (papaia (from papaia latex)) (UniProt P00784). This is another data set of the same source.
Experiment [6] has as its target TcCYS4-His-tag, recombinant cystatin TcCYS4 from Theobroma cacao (Theobroma cacao). Briefly: SEC; as a2, samples treated in the range from 55 to 75°C for 10 min; 20 uM, 100 mM phosphate buffer pH 6, 150 mM NaCl, Superdex 75 5/150.
Experiment [7] deals with papain from papaia latex (papaia (from papaia latex)) (UniProt P00784). This is another data set of the same source.

Chain of UniProt P00784 (P00784 134-345): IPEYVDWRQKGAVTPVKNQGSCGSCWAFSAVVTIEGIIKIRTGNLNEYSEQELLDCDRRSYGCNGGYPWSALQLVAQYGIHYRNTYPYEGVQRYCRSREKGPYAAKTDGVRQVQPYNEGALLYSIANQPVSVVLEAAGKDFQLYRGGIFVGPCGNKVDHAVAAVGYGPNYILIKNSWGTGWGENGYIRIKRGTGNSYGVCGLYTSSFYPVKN

Take “recombinant cystatin TcCYS3 from Theobroma cacao (natural protein)”: the papain inhibition rate after treatment of the cystatin for 10 min at temperatures up to 90°C in experiment [1] was 100%.

A word on the stoichiometry N: it is the number of molecules, sites or subunits per partner or assembly. Regarding “TcCYS4-His-tag, recombinant cystatin TcCYS4 from Theobroma cacao (natural protein)”, in experiment [2], the residual activity of papain with TcCYS4 treated at 65°C for 0 to 600 s (plateau after 300 s) stood at 60%. In experiment [3], this substance registered a papain inhibitory activity after treatment of the cystatin for 10 min at different temperatures up to 90°C; 70% of activity at 65°C of more than 100%. Also, the stoichiometry N in experiment [4] was 2; in experiment [6], 3. Further, in experiment [5], the percentage of inhibition of papain at pH values of the reaction medium from 2 to 10.5 (20% at pH 3, 70% at pH 3.5, about 90% from pH 4 to 9, about 80% at pH 10.5) was found to be 90%.

Take “recombinant cystatin TcCYS2 from Theobroma cacao (natural protein)”: the papain inhibitory activity after treatment of the cystatin for 10 min at different temperatures up to 90°C; around 52% at 65°C in experiment [7] stood at 65%.
